# Experimental data as given in article PMC3600821.
# Molecular target: Skeletal muscle actin (F-actin) (rabbit) (UniProt P68135)
Substance,actin-activated Mg-ATPase: K (ATPase) (the actin concentration giving V=Vmax/2),actin-activated Mg-ATPase: Vmax/K (ATPase) (catalytic efficiency)
M761-2R (761-aa wild-type Dictyostelium myosin II catalytic domain fused to two α-actinin repeats) (from UniProt P08799 1-761),59 µM,130000 M⁻¹ s⁻¹
Muscle S1 (skeletal muscle myosin II subfragment 1) (domain or fragment),15.8 µM,1.23e+06 M⁻¹ s⁻¹
S619C-IQ (S619C construct extended to include one IQ domain) (from UniProt P08799 1-790) (domain or fragment),17.3 µM,180000 M⁻¹ s⁻¹
